Test [1] addresses T1, his-tagged TSLPR (TSLPR-HIS) (UniProt Q9HC73 23-231, limits assumed).
T1 construct: Soluble protein used in the ForteBio assay; not shown: His tag
T1 sequence (looked up): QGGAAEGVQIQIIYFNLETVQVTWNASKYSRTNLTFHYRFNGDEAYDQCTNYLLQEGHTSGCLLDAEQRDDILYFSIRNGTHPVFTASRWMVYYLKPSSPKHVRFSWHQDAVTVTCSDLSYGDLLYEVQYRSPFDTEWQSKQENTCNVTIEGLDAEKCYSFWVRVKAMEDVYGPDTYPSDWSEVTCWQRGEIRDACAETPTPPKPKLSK
In words: BLI (ForteBio AHQ sensor), antibody captured, TSLPR-HIS in solution. As to the method:
(§1) TSLPR antibody clones whose VH and VL sequences are disclosed in Tables 9 and 10 were bound to the AHQ sensor and his-tagged TSLPR (TSLPR-HIS) was provided in solution. […] The anti-TSLPR antibodies were serially diluted with an HBS-EP solution (GE Healthcare), and 100 μL of the solution was added to the flow path at a flow rate of […].
(In BLI a coated tip is dipped into the sample, and binding shifts an interference pattern.)

Test [2] has as its target T1, his-tagged TSLPR (TSLPR-HIS). In words: BLI (ForteBio AHQ sensor), antibody captured, TSLPR-HIS and TSLP in solution; competitor TSLP. How it is done: as §1

B1: TSLPR antibody clone 1A10 (antibody, V domains shown)
VH: QVQLQESGPGLVKPSETLSLTCNVSGGSISTYYWNWLRQPPGKGLEWIGSIYYSGTTNYNPSLKSRVTISVDTSKHQFSLRLTSVTAADTAVYFCARDQGYYHGSGSYFFDYWGQGTLVTVSS
VL: EIVMTQSPATLSVSPGERATLSCRASQSVSSHLAWYQQKPGQAPRLLIYGASTRATGIPARFSGSGSGTEFTLTISSLQSEDFAIFYCQQYNNWPLTFGGGTKVDIKR
notes: Captured on an anti-human IgG sensor
What is called Kd is the equilibrium constant for the complex coming apart. Read a low Kd as higher affinity. By koff is commonly meant a measure of how fast the partners let go of each other. The low end stands for a long-lived complex, the high end for a short-lived complex. A word on the kon: it is the rate constant with which the complex forms. Low readings indicate slower complex formation, high ones faster complex formation. B1: in test [1], the dissociation constant Kd was 8.9 nM, the koff came out at 0.00119 s⁻¹ and the kon was determined as 133000 M⁻¹ s⁻¹.

B2: TSLPR antibody clone 1B9 (antibody, V domains shown)
VH: QVQLQESGPGLVKPSGTLSLTCAVSGGSIRSSNWWSWVRQPPGKGLEWIGEIYHGGTTNNNPSLKSRVTISVDQSKSQFSLKLSSVTAADTAVYYCARHRYSSGLDYWGQGTLVTVSS
VL: DIQMTQTPSTLSASVGDRVTITCRGSHSISNWLGWYRHKPRKAPNLLIYKASSLKSGVPSRFSGSGSGTEFTLTITSLQPDDFATYYCQQYNHYSTFGQGTKVDIKR
notes: as for B1
In test [1], B2 registered a dissociation constant Kd of 2.33 nM, a koff of 0.00127 s⁻¹ and a kon of 545000 M⁻¹ s⁻¹.

B3: TSLPR antibody clone 2B2 (antibody, V domains shown)
VH: QVQLVESGGGVVQPGRSLRLSCAASGFTFSNYGMHWVRQAPGKGLEWVSFIWYDGSHRYYADSVKGRFTISRDNSKNTLYLQMNSLRAEDTAVYYCAKGRGGLDWYFDLWGRGTLVTVSS
VL: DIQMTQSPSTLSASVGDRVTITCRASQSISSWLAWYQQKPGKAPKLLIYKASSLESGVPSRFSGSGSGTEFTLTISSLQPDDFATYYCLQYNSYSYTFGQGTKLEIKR
notes: as for B1
As to B3, in test [1], binding was put at a Kd of 8.07 nM, the dissociation rate constant (koff) turned out to be 0.00324 s⁻¹ and the on-rate (kon) amounted to 401000 M⁻¹ s⁻¹. Also, the “TSLPR-TSLP Response” value in test [2] stood at 21.2%.

B4: TSLPR antibody clone 1D10 (antibody, V domains shown)
VH: QVQLQESGPGLVKPSETLSLTCTVSGGSISRYYWSWIRQPPGKGLEWIGYIFYNKNTNYNPSLKSRVTISVDTSKNQFSLKLSSVTAADTAVYYCARYIAAIYTDLYYFDYWGQGTLVTVSS
VL: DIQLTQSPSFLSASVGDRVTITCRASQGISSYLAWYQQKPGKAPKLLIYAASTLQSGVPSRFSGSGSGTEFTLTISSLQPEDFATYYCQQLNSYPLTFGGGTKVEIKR
notes: as for B1
For the molecule B4, in test [1], the Kd was below 0.001 nM, the koff was below 1e-07 s⁻¹ and the kon stood at 16200 M⁻¹ s⁻¹.

B5: TSLPR antibody clone 2F1 (antibody, V domains shown)
VH: QVQLQESGPGLVKPSETLSLTCTVSGGSISRYYWSWIRQPPGKGLEWIGYIFYNKNTNYNPSLKSRVTISVDTSKNQFSLKLSSVTAADTAVYYCARYIAAIYTDLYYFDYWGQGTLVTVSS
VL: DIQLTQSPSFLSASVGDRVTITCRASQGISSYLAWYQQKPGKAPKLLIYAASTLQSGVPSRFSGSGSGTEFTLTISSLQPEDFATYHCQQLNSYPLTFGGMTKVEIKR
notes: as for B1
In the case of B5, in test [1], binding was characterised by a dissociation constant (Kd) of 4.33 nM, the koff turned out to be 0.000332 s⁻¹ and the on-rate (kon) was 76800 M⁻¹ s⁻¹. Moreover, the “TSLPR-TSLP Response” value in test [2] turned out to be 204%.

B6: TSLPR antibody clone 2D11 (antibody, V domains shown)
VH: QVQLQESGPGLVKPSETLSLTCAVSGYSISSGYYWGWIRQPPGKGLEWIGRIYHSGTTSYNPSLKRRVTISVDTSKNQFSLKLSSVTATDTAVYYCARNWGGNWFDPWGQGTLVTVSS
VL: DIQMTQSPSSLSASVGDRVTITCRASQGISNYLAWYQQKPGKVPKLLIYAASTLQSGVPSRFSGSGSGTDFTLTISSLQPEDVATYYCQKYNSARTFGQGTKVDIKR
notes: as for B1
In test [1], B6 registered a dissociation constant (Kd) of 5.29 nM, a koff of 0.000881 s⁻¹ and an on-rate constant (kon) of 167000 M⁻¹ s⁻¹. For the same molecule, the “TSLPR-TSLP Response” value in test [2] is 83.2%.

B7: TSLPR antibody clone 1G3 (antibody, V domains shown)
VH: QVQLVESGGGVVQPGRSLRLSCAASGFTFSSYGMHWVRQTPGKGLEWVAVMWYDGRNKYYADSVKGRFTISRDNSKNTLYLQMNSLRAEDTAVYYCARDRIMVRGVIIPHVFDIWGQGTMVTVSS
VL: EIVMTQSPATLSVSPGERATLSCRASQSVSSNLGWYQQKPGQAPRLLIYGASTRATGIPARFSGSGSGTEFILTISSLQSEDFAVYYCQEYNNWWTFGQGTKVDIKR
notes: as for B1
In test [1], B7 came in with a Kd of 11.7 nM, an off-rate (koff) of 0.0021 s⁻¹ and an on-rate constant (kon) of 179000 M⁻¹ s⁻¹.

B8: TSLPR antibody clone 1F6 (antibody, V domains shown)
VH: QVQLVQSGAEVRKPGSSVKVSCKASGGTVSSYAISWVRQAPGQGLEWMGGITPIFGTAKYAQKFQGRVTITADKSTSTAYMELSSLRSEDTAVYYCARGGIAAAGTFDYWGQGTLVTVSS
VL: not shown
notes: as for B1
Regarding B8, in test [1], binding was put at a Kd of 3.9 nM, the koff is 0.00137 s⁻¹ and the kon is 351000 M⁻¹ s⁻¹.

B9: TSLPR antibody clone 2H4 (antibody, V domains shown)
VH: QVQLVQSGAEVKKPGSSVKVSCKASGGTFNSYAISWVRQAPGQGLEWMGGITPIFGTAKYAQKFQGRVTITADKSTSTTYMELSSLRSEDTAVYYCARPGIIVAGPFDYWGQGTLVTVSS
VL: not shown
notes: as for B1
In test [1], B9 yielded a Kd of 5.91 nM, a koff of 0.0015 s⁻¹ and a kon of 254000 M⁻¹ s⁻¹. Besides, the “TSLPR-TSLP Response” value in test [2] stood at 32.2%.

B10: TSLPR antibody clone 2E4 (antibody, V domains shown)
VH: EVQLLESGGGLVQPGGSLRLSCAASGFTFSSYAMNWVRQAPGKGLEWVSGISGSGGSTYYADSVKGRFTFSRDNSKNTLYLQMISLRAEDTAVYYCAKDQRITMVRGVIGAFDIWGQGTMVTVSS
VL: DIQMTQSPSTLSASVGDRVTITCRASQSISSWLAWYQQKPGKAPKLLIYKASSLESGVPSRFSGSGSGTEFTLTISSLQPDDFATYYCQQYVGLITFGQGTRLEIKR
notes: as for B1
B10: in test [1], the Kd came out at 1.01 nM, the off-rate constant (koff) was determined as 0.000294 s⁻¹ and the kon was found to be 292000 M⁻¹ s⁻¹.

B11: TSLPR antibody clone 2H1 (antibody, V domains shown)
VH: EVQLLESGGGLVQPGGSLSLSCAASGFTFSRYGMHWVRQAPGKGLEWVSAISASGGSTYYADSVKGRFTISRDNSKNTLYLQMNSLRAEDTAVYYCAKDKWGYAFDIWGQGTTVTVSS
VL: DIQMTQSPSTLSASVGDRVTITCRASQSISNWLAWYQQKPGKAPKLLIYKASSLESGVPSRFSGSGSGTEFTLTISSLQPDDFATYYCLQYNHYSTFGQGTKVDIKR
notes: as for B1
As for B11, the “TSLPR-TSLP Response” value in test [2] amounted to 80%.

B12: TSLPR antibody clone 2H8 (antibody, V domains shown)
VH: EVQLLESGGGLEQPGGSLRLSCAASGFTFSSHAMNWVRQAPGKGLEWVSAISGSGGSTYYADSVKGRFTISRDNSKNTLCLQMNSLRAEDTAVYYCARGHNSGWPYWGQGTLVTVSS
VL: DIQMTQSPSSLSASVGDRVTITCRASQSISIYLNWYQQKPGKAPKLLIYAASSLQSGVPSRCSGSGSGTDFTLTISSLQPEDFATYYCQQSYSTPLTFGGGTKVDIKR
notes: as for B1
In test [1], B12 gave an equilibrium dissociation constant (Kd) of 0.806 nM, a koff of 0.000191 s⁻¹ and an on-rate (kon) of 237000 M⁻¹ s⁻¹.

B13: TSLPR antibody clone 10C4 (antibody, V domains shown)
VH: QVQLQESGPGLVKPSGTLSLTCAVSGGSINSNNWWSWVRQPPGKGLEWIGDIYHSGSTNYNPSLKSRVTISVDKSKSQFSLKLSSVTAADTAVYYCARRRWLQHFDFWGQGTLVTVSS
VL: DIQMTQSPSTLSASVGDRVTITCRASQSITNWLAWYQQKPGKAPKLLIYKASSLESGVPSRFSGSGSGTEFTLAISSLQPDDFATYYCQQYNIYPLAFGGGTKVEIKR
notes: as for B1
In test [1], B13 showed a Kd of 4.86 nM, a koff of 0.000334 s⁻¹ and a kon of 68800 M⁻¹ s⁻¹.

B14: TSLPR antibody clone 2A4 (antibody, V domains shown)
VH: QVQLVQSGAEVKKPGASVKVSCKASGYTFTGYYMHWVRQAPGQGLEWMGRFNLHSGVTNYAQKFQGRVTMTRDTSISTVYMDLSRLRSDDTAVYYCARERQWLVQDYFDYWGQGTLVTVSS
VL: DIQMTQSPSSLSASVGDRVTITCRASQSISNYLNWYQQKPGKAPNLLICAASSLQSGVPSRFSGSGSGTDFTLTISSLQPEDFATYYCQQSYSIPPTFGQGTKVDIKR
notes: as for B1
In test [1], B14 showed a Kd of 3.07 nM, a koff of 0.000326 s⁻¹ and a kon of 106000 M⁻¹ s⁻¹. For the same molecule, the “TSLPR-TSLP Response” value in test [2] is -3.7%.

B15: TSLPR antibody clone 3E5 (antibody, V domains shown)
VH: EVQLLESGGGLVQPGGSLRLSCAASGFTFSSNAMSWVRQAPGKGLEWVSAIRGRGGSTYYADSVKGRFTISRDNSKNTLYLQLNSLRAEDTAVYYCAKDRIVVAGPFDHWGQGTLVTVSS
VL: DIQLTQSPSFLSASVGDRVTITCRASQGISSYLAWYQQKPGKAPKLLIYAASTLQSGVPSRFSGSGSGTEFTLTISSLQPEDFATYYCQQLNRYPLTFGGGTKVDIKR
notes: as for B1
For the molecule B15, in test [1], the equilibrium dissociation constant (Kd) was 6.81 nM, the koff was determined as 0.00139 s⁻¹ and the kon was 204000 M⁻¹ s⁻¹.

B16: TSLPR antibody clone 3D8 (antibody, V domains shown)
VH: QVQLVESGGGVVQPGRSLRLSCAASGFTFSSYVMHWVRQAPGKGLEWVAVIWYAGNKKYYADSVKGRFTISRDNSNNTLYLQMNSLRAEDTAVYYCAREYSSSWHYYGMDVWGQGTTVTVSS
VL: DIQLTQSPSFLSASVGDRVTITCRASQGISSYLAWYQQKPGKAPKLLIYAASTLQSGVPSRFSGSGSGTEFTLTISSLQPEDFATYYCQQLNSYPLTFGGGTKVDIKR
notes: as for B1
With B16, in test [1], binding was characterised by a dissociation constant (Kd) of 1.16 nM, the koff was found to be 0.000134 s⁻¹ and the on-rate constant (kon) came out at 116000 M⁻¹ s⁻¹.

B17: TSLPR antibody clone 2F5 (antibody, V domains shown)
VH: EVQLVESGGGLVQSGGSLRFSCAASGFTFSSHPMNWVRQVPGKGLEWVSSISGSGGSTYYADFVKGRFTISRDNSKNTLYLQMNSLRAEDTAVYYCAKGHNSGWKYWGQGTLVTVSS
VL: DIQLTQSPSFLSASVGDRVTITCRASQGISSYLAWYQQKPGKAPKLLIYAASTLQSGVPSRFSGSGSGTEFTLTISSLQPEDFATYYCQQLNSYPPTFGQGTKVDIKR
notes: as for B1
In the case of B17, in test [1], binding was characterised by a dissociation constant (Kd) of 1.28 nM, the koff amounted to 0.00045 s⁻¹ and the on-rate (kon) is 351000 M⁻¹ s⁻¹. Also, the “TSLPR-TSLP Response” value in test [2] is 120%.

B18: TSLPR antibody clone 2E6 (antibody, V domains shown)
VH: EVQLLESGGNLVQPGGSLRLSCAASGFTFGSYVMTWGRQAPGKGLEWVSTISASGGSTYYADSVKGRFTISRDNSKNTLYLQMNSLRAEDTAVYYCAKDKWGKGFDIWGQGTMVTVSS
VL: DIQLTQSPSFLSASVGDRVTITCRASQGISSYLAWYQQKPGKAPKLLIYAASTLQSGVPSRFSGSGSGTEFTLTISSLQPEDFATYYCQQLNSYPPTFGGGTKVEIKR
notes: as for B1
In test [1], B18 had a Kd of 7.63 nM, a koff of 0.0014 s⁻¹ and an on-rate constant (kon) of 184000 M⁻¹ s⁻¹. Besides, in test [2], the “TSLPR-TSLP Response” value is 82.6%.

For the origin of these results see patent publication US20240360233A1 (University of Texas, published 2024).
